Assay results taken from patent US20240245800A1, “HIGHLY SPECIFIC RABBIT SINGLE -DOMAIN ANTIBODIES FOR DRUG DELIVERY IN IMMUNOTHERAPY APPLICATIONS” (TECHNOPHAGE, INVESTIGAÇÃO E DESENVOLVIMENTO EM …, priority 2021, published 2024).

Experiments:
Jurkat cells [1] = experiment: Flow cytometry binding of C5 VL sdAb to Jurkat cells; type: cell-based, human
Experimental: FIG. 8. Binding and internalization characterization of C5 VL sdAb. C5 binding and internalization properties against CLBL-1 cells were evaluated by cytometry and immunofluorescence. A) For flow cytometry analysis, 1×10^6 of CLBL-1 cells were incubated with Live/Dead reagents for 30 minutes. Then, 3 μM of C5 were incubated with the cells for different timepoints at 37° C. After, cells were washed, fixed, permeabilized, and incubated for 30 min with anti-HA antibody, washed twice and incubated with anti-rat Alexa Fluor-488. […] B) By contrast, no binding of C5 was detected with Jurkat cells. C) To confirm the binding of C5 to the CLBL-1 verified by flow cytometry, we evaluated its distribution on the cells by immunofluorescence assay. […] Representative microphotographs with C5 (green) and DAPI stained-nuclei (blue) are shown.
The C5 VL sdAb binding and cellular internalization properties towards CLBL-1 cells were studied by cytometry analysis and immunofluorescence. […] Live/dead reagent was used to exclude dead cells and the background noise was also evaluated in the control with the secondary antibody (data not shown). To better characterize the binding of the C5 to the CLBL-1 cells, we further evaluated the internalization of the C5 sdAb on the cells using an immunofluorescence assay. […]

CLBL-1 cell extracts = experiment: ELISA screening of anti-cNHL VL sdAb clones; type: binding, canine; details: clone supernatants, CLBL-1 extracts
Experimental: After the phage display selection, in order to express and select the best anti-cNHL VL sdAbs, phagemid DNA derived from the in vivo output selection was cloned into a PT7-PL vector and transformed into an E. coli strain BL21. Then, individual clones were auto induced, and the supernatant tested in ELISA assays against CLBL-1 and Jurkat cell extracts. To select the best lead candidates, three parameters were evaluated: binding against cNHL, expression yields, and unspecific binding. […] After selection, to characterize the selected clones, the 43 best lead candidates were analysed by sanger sequencing (FIG. 6B). To get further insights of the enriched sequences during the in vivo phage display selection, we performed next generation sequencing (NGS) of the biopanning repertoires. NGS allows massive sequence analysis of the panning population, enabling a genomic assessment of the library diversity and frequency of each clone. Two samples were sequenced: biopanning from the CLBL-1 tumour models and initial immune VL sdAb cNHL library (FIG. 7). Upon bioinformatic analysis of the NGS data, we were able to determine the diversity of each sample and identify the most represented clones. A total of 34880 sequences were obtained for the biopanning from the CLBL-1 tumours. The NHL library obtained a total of 48864 sequences. The number of singletons, consisting of the sequences with a single occurrence, varied between samples, ranging from 76.8% in the library, and 33.3% in the in vivo biopanning from the CLBL-1. Through the comparison of the sequence prevalence between the biopannings and the library, we were able to verify that the number of occurrences in each sequence was higher in the biopanning clones. […] By comparing ELISA data, sanger sequencing and NGS analysis, the six best clones (A12, C8, C5, E1, E2, and B12) were produced and purified. Due to its binding characteristics and production properties, C5 sdAb clone was chosen to be thoroughly characterized and used in the development of the proposed ADC.
To express and select anti-NHL-sdAbs, phagemid DNA encoding selected anti-cNHL sdAbs was cloned into PT7-PL (PT7-peptide leader) vector and transformed into E. coli strain BL21. Individual colonies were inoculated in 100 μl of Super Broth (SB) medium containing Overnight Express™ Autoinduction System (Novagen®) and 100 μg/ml of ampicillin and incubated overnight at 30° C. Next day, 40 μl of BugBuster (Roche) containing anti-protease cocktail-EDTA free inhibitors (Roche) were added and incubated for 30 min at 4° C. Then, plates were centrifuged at 1200 rpm and the supernatant was tested in ELISA assays. Three different conditions were assessed: binding to the sdAbs to the antigen, expression level and unspecific binding. After coating the wells with CLBL-1 cell extracts or Raji cell extracts for 1 h at 37° C., wells were blocked with 3% BSA in PBS. Then, wells were washed with PBS and clones were added and incubated for 1 h, at 37° C. Next, plates were washed and incubated with anti-HA HRP antibody (Roche). Finally, after 1 h incubation, plates were washed and ABTS (Roche) was added and optical density at 405 nm was measured at different time points. To evaluate the expression level, the same protocol was applied, excluding antigen coating.
For unspecific binding, antigen was replaced by 3% BSA. Rabbit sera and anti-CD20 antibody were used as positive controls. BL21 cell extracts were used as negative controls. In the end, the ten best individual clones were sequenced at Eurofins company. Sequence analysis was performed using the Vector Nti software (Invitrogen). The antibody frameworks, CDRs and the amino acid numbering and sequences followed the rules described by Kabat et al. (1991) Sequences of proteins of immunological interest. Bethesda, MD, U.S. Dept. of Health and Human Services, Public Health Service, National Institutes of Health. […]

Jurkat cells [2] = experiment: Immunofluorescence of C5 with Jurkat cells; type: cell-based, human

B1: C5: rabbit derived anti-cNHL VL sdAb clone, SEQ. ID. 3; ^99mTc radiolabelled for biodistribution (antibody, listed as Oryctolagus cuniculus, V domains shown)
VL: ELDLTQTPSPVSASVGGTATINCQASQSVYNNYWWAWYQQRPGHPPKLLIYETSKLASGVPSRFKGSGSGTQFTLTIIDVQCDDAATYVCAGGYGTVIDNAFGGGTELEIL
modifications: 99mTc(CO)3 radiolabel
notes: ID; ^99mTc radiolabelled for biodistribution
For B1, the “binding to Jurkat cells (flow cytometry)” value (Jurkat cells [1]) was “no binding interaction”, the “ELISA signal against NHL cells” value (CLBL-1 cell extracts) was “best results” and the “fluorescence with Jurkat cells (immunofluorescence)” value (Jurkat cells [2]) was “no detectable fluorescence”.
